The record followed here is paper PMC11580933 (bioRxiv, 2024).

Where no end group is shown, it is not given here.

In experiment [1] the target is T1, KTN1(991–1357) (human, UniProt Q86UP2 991-1357).
T1 sequence (looked up): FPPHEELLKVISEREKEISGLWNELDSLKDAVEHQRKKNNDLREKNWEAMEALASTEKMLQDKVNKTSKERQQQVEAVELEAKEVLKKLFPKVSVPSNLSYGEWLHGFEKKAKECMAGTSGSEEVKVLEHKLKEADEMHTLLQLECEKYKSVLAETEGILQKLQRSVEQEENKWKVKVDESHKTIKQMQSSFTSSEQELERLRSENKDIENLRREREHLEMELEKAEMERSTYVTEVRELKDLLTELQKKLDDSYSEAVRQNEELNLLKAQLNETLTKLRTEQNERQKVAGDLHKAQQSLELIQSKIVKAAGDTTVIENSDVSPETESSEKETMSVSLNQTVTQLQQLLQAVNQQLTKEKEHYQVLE
In words: pull-down.

Experiment [2] addresses T1, KTN1(991–1357). In words: SEC. A general note: In gel filtration, larger molecules generally elute earlier.
A further experiment deals with CDR2(1–146) (human, UniProt Q01850 1-146). The experiment can be described thus: SEC.
Sequence of CDR2(1–146) (Q01850 1-146): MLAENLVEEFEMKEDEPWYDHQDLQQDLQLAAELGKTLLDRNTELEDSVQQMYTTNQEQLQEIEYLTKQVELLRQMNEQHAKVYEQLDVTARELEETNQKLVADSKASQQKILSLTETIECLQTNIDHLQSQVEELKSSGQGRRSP

B1: GST::KIF5C(807–956) (domain or fragment)
chain: not shown
With B1, the binding result with KTN1(991–1357) [1] is reported as “binds”. As for EPVSSPTTPPEYKALFKEIFSCIKKTKQEIDEQRTKYRSLSSHS (domain or fragment, human, UniProt Q01850 411-454, looked up) [GST::CDR2(411–454)], the binding result with KTN1(991–1357) [2] is “binds”. On to {GST}-NGPVAGASRQENGASVILRDIARARENIQKSLAGSSG (domain or fragment, human, UniProt P29692 30-66, looked up) [GST::eEF1Bβ(30–66)], for which the binding result with KTN1(991–1357) [2] was “binds”.

B2: GST::DLIC1(388–523) (domain or fragment, human, UniProt Q9Y6G9 388-523, looked up)
chain: PTAAGRPVDASPRVPGGSPRTPNRSVSSNVASVSPIPAGSKKIDPNMKAGATSEGVLANFFNSLLSKKTGSPGGPGVSGGSPAGGAGGGSSGLPPSTKKSGQKPVLDVHAELDRITRKPVTVSPTTPTSPTEGEAS
As to B2, the binding result with CDR2(1–146) is recorded as “binds”.
